Test results reported in patent publication US20210070885A1 (JIANGSU ALPHAMAB BIOPHARMACEUTICALS, published 2021).

Biological target: T1, HER2m1-Fc (human, UniProt P04626 23-652)
T1 construct: also called HERm1; Her2 ml
Assay: indirect ELISA as in Example 2-6, EC50 compared

Binder | fold reduction of affinity against the original Trastuzumab [fold]
Tmab-CLC5 (antibody, human IgG1, kappa, V domains shown) VH: not shown VL: DIQMTQSPSSLSASVGDRVTITCKASQDVSIGVAWYQQKPGKAPKLLIYSASYRYTGVPSRFSGSGSGTDFTLTISSLQPEDFATYYCQQYYIYPYTFGQGTKVEIKR | ~1
Tmab-CLC6 (antibody, human IgG1, kappa, V domains shown) VH: not shown VL: DIQMTQSPSSLSASVGDRVTITCKASQDVSIGVAWYQQKPGKAPKLLIYSASYRYTGVPSRFSGSGSGTDFTLTISSLQPEDFATYYCQQYYITPYTFGQGTKVEIKR | ~1

Biological target: T2, HER2m2-Fc (human, UniProt P04626 23-652)
T2 construct: also called HERm2; Herm2
Assay: indirect ELISA as in Example 2-6, EC50 compared

Binder | binding result
Pmab-CLC2 (antibody, human IgG1, kappa, V domains shown, Pertuzumab heavy chain with common light chain CLC2) VH: EVQLVESGGGLVQPGGSLRLSCAASGFTFTDYTMDWVRQAPGKGLEWVADVNPNSGGSIYNQRFKGRFTLSVDRSKNTLYLQMNSLRAEDTAVYYCARNLGPSFYFDYWGQGTLVTVSS VL: not shown | binds
Pmab-CLC3 (antibody, human IgG1, kappa, V domains shown, Pertuzumab heavy chain with common light chain CLC3) VH: EVQLVESGGGLVQPGGSLRLSCAASGFTFTDYTMDWVRQAPGKGLEWVADVNPNSGGSIYNQRFKGRFTLSVDRSKNTLYLQMNSLRAEDTAVYYCARNLGPSFYFDYWGQGTLVTVSS VL: not shown | binds
Pmab-CLC4 (antibody, human IgG1, kappa, V domains shown, Pertuzumab heavy chain with common light chain CLC4) VH: EVQLVESGGGLVQPGGSLRLSCAASGFTFTDYTMDWVRQAPGKGLEWVADVNPNSGGSIYNQRFKGRFTLSVDRSKNTLYLQMNSLRAEDTAVYYCARNLGPSFYFDYWGQGTLVTVSS VL: not shown | binds
Pmab-CLC6 (antibody, human IgG1, kappa, V domains shown, Pertuzumab heavy chain with common light chain CLC6 (Y94T)) VH: EVQLVESGGGLVQPGGSLRLSCAASGFTFTDYTMDWVRQAPGKGLEWVADVNPNSGGSIYNQRFKGRFTLSVDRSKNTLYLQMNSLRAEDTAVYYCARNLGPSFYFDYWGQGTLVTVSS VL: DIQMTQSPSSLSASVGDRVTITCKASQDVSIGVAWYQQKPGKAPKLLIYSASYRYTGVPSRFSGSGSGTDFTLTISSLQPEDFATYYCQQYYITPYTFGQGTKVEIKR | binds
